What was measured:
[1] = target: T1, human CD79b and CD20 co-expressed on the surface of B-lymphoma cell lines or primary B cells (human, UniProt P11836 1-297); test: cell-based or functional assay
T1 sequence 1: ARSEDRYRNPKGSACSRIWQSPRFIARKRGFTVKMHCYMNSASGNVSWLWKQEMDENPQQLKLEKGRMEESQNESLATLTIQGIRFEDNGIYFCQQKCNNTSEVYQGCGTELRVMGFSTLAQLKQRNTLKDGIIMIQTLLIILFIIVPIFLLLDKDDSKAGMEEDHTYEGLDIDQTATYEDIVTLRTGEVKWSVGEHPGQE
T1 sequence 2: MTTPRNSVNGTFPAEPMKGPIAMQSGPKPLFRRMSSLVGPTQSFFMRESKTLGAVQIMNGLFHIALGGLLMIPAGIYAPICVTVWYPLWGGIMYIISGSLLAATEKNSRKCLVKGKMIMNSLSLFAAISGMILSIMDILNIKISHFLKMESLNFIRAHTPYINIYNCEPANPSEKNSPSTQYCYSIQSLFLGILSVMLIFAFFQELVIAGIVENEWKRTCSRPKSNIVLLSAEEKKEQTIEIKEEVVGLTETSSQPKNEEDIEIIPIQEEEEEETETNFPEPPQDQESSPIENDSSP

[2] = target: T1, human CD79b and CD20 co-expressed on …; test: cell-based or functional assay; remark: listed apart in the source
[3] = target: T1, human CD79b and CD20 co-expressed on …; test: cell-based or functional assay; remark: listed apart in the source
[4] = target: T1, human CD79b and CD20 co-expressed on …; test: cell-based or functional assay; remark: listed apart in the source
[5] = target: T1, human CD79b and CD20 co-expressed on …; test: cell-based or functional assay; remark: listed apart in the source
[6] = target: T2, cynomolgus monkey CD79b antigen (cynomolgus monkey); test: SPR Biacore 8k, cyno CD79b injected up to 3000 nM
T2 construct: also called cyno CD79b; CD9W1.001
Experimental: (§1) General Protocol for SPR Affinity Assessment: Affinity assessment of the bispecific trispecific constructs against human CD79b were measure using recombinantly expressed extracellular domain of CD79b short and long isoforms (CD9W7.001 and CD9W8.001, respectively) by Surface Plasmon Resonance (SPR) using a Biacore 8k SPR system (Biacore) at 25° C. in HBSP+ buffer. Cross-reactivity of the same antibody panel was also assessed against cyno and mouse antigens (CD9W1.001 and CD9W105.001, respectively). Briefly, a C1 sensor chip was immobilized with anti-human Fc (target immobilization levels of >400 RU) using vendor recommended amino coupling protocol. […] The association and dissociation phases were measured for 2 or 3 minutes and 30 minutes, respectively.
(§2) The raw binding sensorgrams were processed using Biacore Insight software (Biacore) by double-referencing and the processed sensorgrams were analyzed for cross-reactivity and fitted to a 1:1 Langmuir model to obtain on-rates, off-rates and affinities.

[7] = target: T3, recombinant extracellular domain of human CD79b, short isoform (human, UniProt P40259 29-159); test: SPR Biacore 8k, antibody captured by anti-Fc, 25 C
T3 chain: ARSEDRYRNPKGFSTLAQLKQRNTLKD
Experimental: as §1, §2

[8] = target: T4, recombinant extracellular domain of human CD79b, long isoform (human, UniProt P40259 29-159); test: SPR Biacore 8k, antibody captured by anti-Fc, 25 C
T4 construct: also called hu CD79b long
T4 sequence: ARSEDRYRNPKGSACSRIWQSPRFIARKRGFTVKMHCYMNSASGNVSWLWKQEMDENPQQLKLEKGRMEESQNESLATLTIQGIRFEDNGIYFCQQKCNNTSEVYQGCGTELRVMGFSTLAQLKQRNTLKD
Experimental: as §1, §2

[9] = target: T1, human CD79b and CD20 co-expressed on …; test: flow cytometry, HBL-1 cells (CD79b+ CD20+), 1 h 37 C
Experimental: (§3) All cells were washed with BD stain buffer (BD Biosciences; Cat #554657), centrifuged at 1200 RPM for 3 minutes, with supernatant discarded. Cells were then stained for 20 minutes at 4° C. with BD stain buffer containing AlexaFluor 647 labeled anti-human IgG secondary antibody (Jackson Immuno; Cat #109-606-098) at a 1:200 dilution along with Aqua Fixable Live/Dead stain (Invitrogen; Cat #L34957) at a 1:400 dilution. All cells were washed with BD stain buffer (BD Biosciences; Cat #554657), centrifuged at 1200 RPM for 3 mins, with supernatant discarded. Cells were analyzed using Intellicyt (Sartorius) flow cytometer and mean fluorescent intensity (MFI) was generated using Forcyt software (Sartorius). MFI was graphed and EC50 values generated using GraphPad PRISM v.8. Dose response curves were generated by transforming the x axis values using the formula […]. Data was then graphed using non-linear regression curve fit analysis “log(agonist) vs. response-variable slope (four parameter)”.

[10] = target: T1, human CD79b and CD20 co-expressed on …; test: flow cytometry, Carnaval cells (CD79b+ CD20+), 1 h 37 C
Experimental: as §3

[11] = target: T1, human CD79b and CD20 co-expressed on …; test: flow cytometry, OCI-LY10 cells (CD79b+ CD20+), 1 h 37 C
Experimental: as §3

B1: C923B99 CD79bxCD20xCD3 trispecific antibody (other)
heavy: QVQLQESGPGLVKPSQTLSLTCTVSGVSISNYYWSWIRQPPGKGLEWIGRISPSGRTNYNPSLKSRVTMSLDASKNQFSLKLSSVTAADTAVYYCARGEYSGTYSYSFDIWGQGTMVTVSSASTKGPSVFPLAPSSKSTSGGTAALGCLVKDYFPEPVTVSWNSGALTSGVHTFPAVLQSSGLYSLSSVVTVPSSSLGTQTYICNVNHKPSNTKVDKKVEPKSCDKTHTCPPCPAPEAAGGPSVFLFPPKPKDTLMISRTPEVTCVVVSVSHEDPEVKFNWYVDGVEVHNAKTKPREEQYNSTYRVVSVLTVLHQDWLNGKEYKCKVSNKALPAPIEKTISKAKGQPREPQVYTLPPSREEMTKNQVSLSCAVKGFYPSDIAVEWESNGQPENNYKTTPPVLDSDGSFFLVSKLTVDKSRWQQGNVFSCSVMHEALHNRFTQKSLSLSPGK
light: DIQMTQSPSSLSASVGDRVTITCRSSQSLFDSDDGNTYLDWFQQKPGQSPKLLIQTLSYRASGVPSRFSGSGSGTDFTLTISSLQPEDFATYYCMQRMEFPLTFGGGTKVEIKRTVAAPSVFIFPPSDEQLKSGTASVVCLLNNFYPREAKVQWKVDNALQSGNSQESVTEQDSKDSTYSLSSTLTLSKADYEKHKVYACEVTHQGLSSPVTKSFNRGEC
chain: EIVLTQSPATLSASPGERVTLSCSASSSVSYMNWYQQKPGQAPRRWIYDSSKLASGVPARFSGSGSGRDYTLTISSLEPEDFAVYYCQQWSRNPPTFGGGTKVEIKGGSEGKSSGSGSESKSTGGSQVQLVQSGAEVKKPGSSVKVSCKASGYTFTRSTMHWVKQAPGQGLEWIGYINPSSAYTNYNQKFQGRVTLTADKSTSTAYMELSSLRSEDTAVYYCASPQVHYDYAGFPYWGQGTLVTVSSEPKSSDKTHTCPPCPAPEAAGGPSVFLFPPKPKDTLMISRTPEVTCVVVSVSHEDPEVKFNWYVDGVEVHNAKTKPREEQYNSTYRVVSVLTVLHQDWLNGKEYKCKVSNKALPAPIEKTISKAKGQPREPQVYTLPPSREEMTKNQVSLWCLVKGFYPSDIAVEWESNGQPENNYKTTPPVLDSDGSFFLYSKLTVDKSRWQQGNVFSCSVMHEALHNHYTQKSLSLSPGKGGSEGKSSGSGSESKSTGGSAIQLTQSPSSLSASVGDRVTITCRASSSVSYIHWFQQKPGKAPKPLIYATSNLASGVPSRFSGSGSGTDFTLTISSLQPEDFATYYCQQWTSNPPTFGQGTKLEIKGGSEGKSSGSGSESKSTGGSQVQLVQSGAEVKKPGSSVKVSCKASGYTFTSYNMHWVRQAPGQGLEWMGAIYPGNGDTSYAQKFQGRVTITADKSTSTAYMELSSLRSEDTAVYYCARSTYYGGDWYFNVWGQGTLVTVSS
notes: Trispecific IgG1; also called CD9B643 / CD3B2030-N106A-scFv-LH-C20B22
[1]
  IC50, T-cell killing of HBL-1 (Incucyte): 0.0692 nM
[2]
  IC50, T-cell killing of OCI-Ly10 (Incucyte): 5.6 nM
[3]
  IC50, CARNAVAL killing (Incucyte): 0.285 nM
[4]
  IC50, CARNAVAL killing, 72 h (FACS): 0.17 nM
  IC50, HBL-1 killing, 72 h (FACS): 1.68 nM
  IC50, OCI-LY10 killing, 72 h (FACS): 16.9 nM
[5]
  Cmax (maximum cytotoxicity), donor 1: 35%
  Cmax (maximum cytotoxicity), donor 2: 67%
  Cmax (maximum cytotoxicity), donor 3: 66%
  EC50, autologous B-cell depletion, donor 2: 9 nM
  EC50, autologous B-cell depletion, donor 3: 23 nM
[6]
  Kd: > 3000 nM
[7]
  Kd: 0.27 nM
[8]
  Kd: 0.04 nM
[9]
  EC50: 8 nM
[10]
  EC50: 6 nM
[11]
  EC50: 2 nM

Reference: patent US20250043019A1 (Janssen / Centocor, published 2025)
